These are literature values, as cited in article PMC2994244.

Like-named read-outs stand apart in the source and are kept apart here.

Data set [1] deals with ACP (Escherichia coli) (UniProt P0A6A8).
For data set [2] the target is unchanged. The source holds these as a separate data set.

UniProt P0A6A8, sequence (P0A6A8 2-78): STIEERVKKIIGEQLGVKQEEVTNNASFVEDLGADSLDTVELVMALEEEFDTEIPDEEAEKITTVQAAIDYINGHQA

On to KASI (from UniProt P0A953), for which the dissociation constant Kd with ACP (Escherichia coli) [1] is 180 nM.

With KASII (from UniProt P0AAI5), in the data set with ACP (Escherichia coli) [2], the equilibrium dissociation constant (Kd) is 70 nM.
